The target in the test is human PD-L1 (human) (UniProt Q9NZQ7). The experiment in a line: cell-based or functional assay.
Chain of UniProt Q9NZQ7 (Q9NZQ7 19-290): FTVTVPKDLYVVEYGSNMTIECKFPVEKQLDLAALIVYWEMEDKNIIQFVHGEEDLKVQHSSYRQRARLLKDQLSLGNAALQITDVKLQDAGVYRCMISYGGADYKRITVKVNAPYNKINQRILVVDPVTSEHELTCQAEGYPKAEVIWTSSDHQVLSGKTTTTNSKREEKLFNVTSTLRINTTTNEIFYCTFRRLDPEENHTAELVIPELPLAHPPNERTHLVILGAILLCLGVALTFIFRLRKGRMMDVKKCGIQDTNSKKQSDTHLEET

B1: monoclonal antibody to human PD-L1, clone 29E.2A3 (mouse IgG2b) (antibody, from another filing, V domains shown)
VH: EVQLQQSGPELVKPGASVKMSCKASGYTFTSYVMHWVKQKPGQGLEWIGYVNPFNDGTKYNEMFKGKATLTSDKSSSTAYMELSSLTSEDSAVYYCARQAWGYPWGQGTLVTVSA
VL: DIVLTQSPASLAVSLGQRATISCRATESVEYYGTSLVQWYQQKPGQPPKLLIYAASSVDSGVPARFSGSGSGTDFSLTIHPVEEDDIAMYFCQQSRRVPYTFGGGTKLEIK
As to B1, the fold increase in B*4201 TL9 tetramer+ CD8 T cells, 6-day CFSE proliferation assay of PBMC with TL9 peptide plus anti-PD-L1 blocking antibody (peptide alone: 4.8-fold) worked out at 10.3 fold and the percentage of B*4201 TL9-specific CD8 T cells after 6-day stimulation with peptide, in the presence of anti-PD-L1 blocking antibody (without it: 5.7%) is 12.4%.

The values are drawn from patent US20190309065A1.
